The supplement of paper PMC11780869

System: Bacillus subtilis
Assay: cleaved RNA product abundance (RNA/gDNA barcode ratio) relative to median wild-type variant (ratio to wild type); higher = more accumulation of the downstream cleavage product
Conditions: cleavage site: cggR-gapA (positions -7 to +36 mutated)
Procedure, shortened: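 The B. subtilis chromosome carried reporter mRNAs, truncated aprE or tetM, containing barcoded RNase Y cleavage-site windows mutagenized using oligos with a 9% error rate. After growth in LB at 37°C from OD600 0.0003 to 0.3, cleaved RNA was gel-selected, reverse transcribed and barcode-sequenced next to genomic DNA barcodes, with UMI collapsing. Each construct's RNA:gDNA barcode ratio was scaled to the median construct with the unmutated site. That scaled ratio is reported as cleaved product abundance.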

[1] = experiment (reporter, strain, medium): exp 2b: truncated aprE reporter, strain BJT200
[2] = experiment (reporter, strain, medium): exp 4a: truncated aprE reporter, strain BJT201 with 2% xylose (RNase J1 expressed)

| Sequence | cleaved RNA product abundance [1] | cleaved RNA product abundance [2] | cleaved RNA product abundance (experiment (reporter, strain, medium): exp 6: tetM reporter, strain 168) |
| --- | --- | --- | --- |
| ACAGACGAAGGAGCCGCAAAGAAGTTATAAAGTGATGAATAATCCCTCAATATAAATATCTCTCACTTATTTAAA | 0.0907 | 0.117 |  |
| ACAGACGAAGGAGCCGCAAAGAAGTTATAAATGGATGAATAATCCCTCAATATAAATATCTCTCACTTATTTAAA | 0.113 | 0.165 |  |
| ACAGACGAAGGAGCCGCAAAGAAGTTATAAGGGGATGAATAATCCCTCAATATAAATATCTCTCACTTATTTAAA |  | 0.49 |  |
| ACAGACGAAGGAGCCGCAAAGAAGTTATAATGGGATGAATAATCCCTCAATATAAATATCTCTCACTTATTTAAA | 0.29 | 0.293 |  |
| ACAGACGAAGGAGCCGCAAAGAAGTTATATAGGGATGAATAATCCCTCAATATAAATATCTCTCACTTATTTAAA |  | 0.664 |  |
| ACAGACGAAGGAGCCGCAAAGAAGTTATCAAATGATGAATAATCCCTCAATATAAATATCTCTCACTTATTTAAA |  | 0.123 |  |
| ACAGACGAAGGAGCCGCAAAGAAGTTATCAACGGATGAATAATCCCTCAATATAAATATCTCTCACTTATTTAAA |  | 0.15 |  |
| ACAGACGAAGGAGCCGCAAAGAAGTTATCAAGAGATGAATAATCCCTCAATATAAATATCTCTCACTTATTTAAA | 0.0893 | 0.116 |  |
| ACAGACGAAGGAGCCGCAAAGAAGTTATCAAGCGATGAATAATCCCTCAATATAAATATCTCTCACTTATTTAAA |  | 0.0711 |  |
| ACAGACGAAGGAGCCGCAAAGAAGTTATCAAGGAATGAATAATCCCTCAATATAAATATCTCTCACTTATTTAAA |  | 0.11 |  |
| ACAGACGAAGGAGCCGCAAAGAAGTTATCAAGGCATGAATAATCCCTCAATATAAATATCTCTCACTTATTTAAA |  | 0.0787 |  |
| ACAGACGAAGGAGCCGCAAAGAAGTTATCAAGGGATAAATAATCCCTCAATATAAATATCTCTCACTTATTTAAA |  | 0.234 |  |
| ACAGACGAAGGAGCCGCAAAGAAGTTATCAAGGGATCAATAATCCCTCAATATAAATATCTCTCACTTATTTAAA | 0.24 |  |  |
| ACAGACGAAGGAGCCGCAAAGAAGTTATCAAGGGATGAAAAATCCCTCAATATAAATATCTCTCACTTATTTAAA |  | 0.272 |  |
| ACAGACGAAGGAGCCGCAAAGAAGTTATCAAGGGATGAATAAACCCTCAATATAAATATCTCTCACTTATTTAAA | 0.148 | 0.205 |  |
| ACAGACGAAGGAGCCGCAAAGAAGTTATCAAGGGATGAATAATACCTCAATATAAATATCTCTCACTTATTTAAA | 0.149 | 0.132 |  |
| ACAGACGAAGGAGCCGCAAAGAAGTTATCAAGGGATGAATAATCACTCAATATAAATATCTCTCACTTATTTAAA | 0.123 | 0.139 |  |
| ACAGACGAAGGAGCCGCAAAGAAGTTATCAAGGGATGAATAATCCATCAATATAAATATCTCTCACTTATTTAAA |  | 0.321 |  |
| ACAGACGAAGGAGCCGCAAAGAAGTTATCAAGGGATGAATAATCCCTAAATATAAATATCTCTCACTTATTTAAA |  | 0.333 |  |
| ACAGACGAAGGAGCCGCAAAGAAGTTATCAAGGGATGAATAATCCCTCAAAATAAATATCTCTCACTTATTTAAA | 0.2 | 0.289 |  |
| ACAGACGAAGGAGCCGCAAAGAAGTTATCAAGGGATGAATAATCCCTCAATATAAATATCTCTCACTTATTTAAA | 0.27 | 0.385 | 0.34 |
| ACAGACGAAGGAGCCGCAAAGAAGTTATCAAGGGATGAATAATCCCTCAATATAAATGTCTCTCACTTATTTAAA | 0.192 | 0.206 |  |
| ACAGACGAAGGAGCCGCAAAGAAGTTATCAAGGGATGAATAATCCCTCAATATAATTATCTCTCACTTATTTAAA |  | 0.218 |  |
| ACAGACGAAGGAGCCGCAAAGAAGTTATCAAGGGATGAATAATCCCTCACTATAAATATCTCTCACTTATTTAAA |  | 0.306 |  |
| ACAGACGAAGGAGCCGCAAAGAAGTTATCAAGGGATGAATAATCCCTCATTATAAATATCTCTCACTTATTTAAA | 0.216 |  |  |
| ACAGACGAAGGAGCCGCAAAGAAGTTATCAAGGGATGAATAATCGCTCAATATAAATATCTCTCACTTATTTAAA |  | 0.0908 |  |
| ACAGACGAAGGAGCCGCAAAGAAGTTATCAAGGGATGAATAATGCCTCAATATAAATATCTCTCACTTATTTAAA |  | 0.19 |  |
| ACAGACGAAGGAGCCGCAAAGAAGTTATCAAGGGATGAATATTCCCTCAATATAAATATCTCTCACTTATTTAAA |  | 0.27 |  |
